The target in experiment [1] is T1, rat SEZ6 on RIN-m5F cells (rat, UniProt Q7TSK2 20-991 (mouse entry)).
T1 construct: endogenous on RIN-m5F cells; also called rSEZ6
T1 chain: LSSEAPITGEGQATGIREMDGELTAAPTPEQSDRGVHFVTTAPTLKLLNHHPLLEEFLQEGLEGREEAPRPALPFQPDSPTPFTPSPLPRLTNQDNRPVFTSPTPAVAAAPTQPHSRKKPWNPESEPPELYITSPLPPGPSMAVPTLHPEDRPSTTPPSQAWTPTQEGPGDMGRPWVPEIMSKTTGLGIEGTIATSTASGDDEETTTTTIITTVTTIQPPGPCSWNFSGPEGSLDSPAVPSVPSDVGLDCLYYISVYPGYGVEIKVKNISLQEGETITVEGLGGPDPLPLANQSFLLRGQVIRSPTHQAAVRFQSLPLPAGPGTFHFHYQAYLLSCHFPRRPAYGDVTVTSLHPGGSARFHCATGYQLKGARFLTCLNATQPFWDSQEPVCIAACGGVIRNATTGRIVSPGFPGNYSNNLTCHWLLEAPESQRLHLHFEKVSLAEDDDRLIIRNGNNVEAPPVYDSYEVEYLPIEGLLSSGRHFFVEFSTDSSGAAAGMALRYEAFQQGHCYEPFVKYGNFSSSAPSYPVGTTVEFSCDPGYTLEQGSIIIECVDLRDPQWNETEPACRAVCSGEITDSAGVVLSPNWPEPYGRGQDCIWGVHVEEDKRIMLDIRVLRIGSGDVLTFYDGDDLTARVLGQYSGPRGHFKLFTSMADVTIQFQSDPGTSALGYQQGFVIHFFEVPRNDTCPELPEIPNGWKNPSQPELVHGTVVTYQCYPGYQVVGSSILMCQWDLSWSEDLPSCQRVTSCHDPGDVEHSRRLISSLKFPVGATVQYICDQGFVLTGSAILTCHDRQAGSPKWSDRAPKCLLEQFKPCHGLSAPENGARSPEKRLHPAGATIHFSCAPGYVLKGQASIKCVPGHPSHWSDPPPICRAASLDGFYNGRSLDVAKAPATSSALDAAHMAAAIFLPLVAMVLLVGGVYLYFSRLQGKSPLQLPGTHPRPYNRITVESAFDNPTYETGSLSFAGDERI
Nature of the experiment: flow cytometry, RIN-m5F cells, 5 ug/mL antibody.
Method: (§1) Briefly 1×10⁵ cells per well of Neuro2a, RIN-5mF, or yeast displaying cynomolgus SEZ6 cells were incubated for 30 minutes with 50 μL PBS (2% FCS) buffer with 5 μg/mL antibody. […] After incubating for 15 minutes cells were washed twice with the PBS buffer and re-suspended in the same with DAPI for flow cytometry analysis of Neuro2a and Rin-m5F or buffer without DAPI for flow cytometric analysis of yeast cells with cSEZ6.

A further experiment has as its target T2, human SEZ6L2 ECD-His (human, UniProt Q6UXD5 28-843).
T2 construct: whole entry named
The experiment in a line: ELISA on plates coated with SEZ6L2 protein. Background: An ELISA detects its analyte on a solid surface through an enzyme-linked reagent.

Experiment [2] deals with T3, mouse SEZ6 on Neuro2a cells (mouse, UniProt Q7TSK2 20-991).
T3 construct: endogenous on Neuro2a cells; also called murine SEZ6; mSEZ6
T3 sequence (Q7TSK2 20-991): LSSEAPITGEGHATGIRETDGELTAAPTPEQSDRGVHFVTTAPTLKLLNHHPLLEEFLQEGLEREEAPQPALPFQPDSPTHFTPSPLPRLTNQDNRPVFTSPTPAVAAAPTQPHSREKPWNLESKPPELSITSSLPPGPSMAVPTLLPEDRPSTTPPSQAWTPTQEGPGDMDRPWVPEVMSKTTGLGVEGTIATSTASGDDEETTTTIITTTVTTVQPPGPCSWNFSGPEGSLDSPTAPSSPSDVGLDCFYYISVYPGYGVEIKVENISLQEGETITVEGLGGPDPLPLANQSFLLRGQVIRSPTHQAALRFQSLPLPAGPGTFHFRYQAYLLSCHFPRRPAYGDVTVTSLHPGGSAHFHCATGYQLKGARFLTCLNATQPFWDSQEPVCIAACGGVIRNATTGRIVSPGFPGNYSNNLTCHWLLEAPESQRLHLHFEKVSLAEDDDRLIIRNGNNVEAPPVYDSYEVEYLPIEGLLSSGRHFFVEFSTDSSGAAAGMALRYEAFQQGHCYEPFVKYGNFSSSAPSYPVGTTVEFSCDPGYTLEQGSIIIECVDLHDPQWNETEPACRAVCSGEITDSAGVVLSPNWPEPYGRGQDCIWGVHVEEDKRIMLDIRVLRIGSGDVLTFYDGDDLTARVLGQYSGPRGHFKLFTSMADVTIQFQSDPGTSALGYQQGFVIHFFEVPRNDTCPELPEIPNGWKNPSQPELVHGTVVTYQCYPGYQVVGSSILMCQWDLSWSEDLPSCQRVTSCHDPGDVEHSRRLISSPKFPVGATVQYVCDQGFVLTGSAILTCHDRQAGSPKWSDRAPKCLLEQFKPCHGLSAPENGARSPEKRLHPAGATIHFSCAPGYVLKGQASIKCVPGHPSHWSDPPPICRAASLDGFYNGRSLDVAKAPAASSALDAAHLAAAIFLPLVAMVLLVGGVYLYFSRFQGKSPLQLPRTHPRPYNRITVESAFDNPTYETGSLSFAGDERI
Nature of the experiment: flow cytometry on Neuro2a cells expressing mouse SEZ6.
Method: as §1

For a further experiment, the target named is T4, rSEZ6-ECD-His (rat, UniProt Q7TSK2 20-922 (mouse entry)).
T4 construct: the whole entry is named; also called rat recombinant SEZ6-His; rat SEZ6 ECD
T4 chain: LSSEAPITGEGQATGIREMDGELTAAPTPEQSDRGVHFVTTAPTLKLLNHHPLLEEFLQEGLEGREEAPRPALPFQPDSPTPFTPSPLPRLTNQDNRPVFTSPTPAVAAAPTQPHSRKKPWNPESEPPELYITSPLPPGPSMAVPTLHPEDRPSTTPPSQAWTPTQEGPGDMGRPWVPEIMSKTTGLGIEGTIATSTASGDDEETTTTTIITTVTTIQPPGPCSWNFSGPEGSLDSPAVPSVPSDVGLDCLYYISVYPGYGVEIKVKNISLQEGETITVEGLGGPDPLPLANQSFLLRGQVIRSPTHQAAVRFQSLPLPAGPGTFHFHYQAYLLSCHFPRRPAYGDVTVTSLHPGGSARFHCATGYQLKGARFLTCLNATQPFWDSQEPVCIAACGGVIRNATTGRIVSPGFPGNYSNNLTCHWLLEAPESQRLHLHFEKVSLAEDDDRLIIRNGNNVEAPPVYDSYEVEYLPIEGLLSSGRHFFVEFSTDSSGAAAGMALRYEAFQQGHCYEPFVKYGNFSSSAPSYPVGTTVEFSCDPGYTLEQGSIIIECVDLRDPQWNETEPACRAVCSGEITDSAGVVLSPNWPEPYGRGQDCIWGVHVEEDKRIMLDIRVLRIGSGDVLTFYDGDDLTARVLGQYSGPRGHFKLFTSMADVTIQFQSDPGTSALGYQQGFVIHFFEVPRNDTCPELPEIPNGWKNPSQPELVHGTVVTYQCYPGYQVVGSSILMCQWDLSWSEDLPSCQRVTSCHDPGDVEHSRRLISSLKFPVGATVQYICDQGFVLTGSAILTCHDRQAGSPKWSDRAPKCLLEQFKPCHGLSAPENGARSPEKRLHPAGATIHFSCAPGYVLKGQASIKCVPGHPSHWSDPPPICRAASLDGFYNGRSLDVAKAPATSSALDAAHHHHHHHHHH
The experiment in a line: bio-layer interferometry (ForteBio RED) or surface plasmon resonance (Biacore 2000) on rat SEZ6-His; the table does not say which; column Rat XR (Kd, nM).

A further experiment deals with T5, hSEZ6-ECD-His (human, UniProt Q53EL9 20-925).
T5 construct: the whole entry is named; also called recombinant SEZ6-His; human recombinant SEZ6-His
The experiment in a line: bio-layer interferometry (ForteBio RED) or surface plasmon resonance (Biacore 2000) on human SEZ6-His; the table does not say which; column Hu Affinity (Kd, nM).

T2 sequence (Q6UXD5 other isoform, or with tags, fused parts or gaps): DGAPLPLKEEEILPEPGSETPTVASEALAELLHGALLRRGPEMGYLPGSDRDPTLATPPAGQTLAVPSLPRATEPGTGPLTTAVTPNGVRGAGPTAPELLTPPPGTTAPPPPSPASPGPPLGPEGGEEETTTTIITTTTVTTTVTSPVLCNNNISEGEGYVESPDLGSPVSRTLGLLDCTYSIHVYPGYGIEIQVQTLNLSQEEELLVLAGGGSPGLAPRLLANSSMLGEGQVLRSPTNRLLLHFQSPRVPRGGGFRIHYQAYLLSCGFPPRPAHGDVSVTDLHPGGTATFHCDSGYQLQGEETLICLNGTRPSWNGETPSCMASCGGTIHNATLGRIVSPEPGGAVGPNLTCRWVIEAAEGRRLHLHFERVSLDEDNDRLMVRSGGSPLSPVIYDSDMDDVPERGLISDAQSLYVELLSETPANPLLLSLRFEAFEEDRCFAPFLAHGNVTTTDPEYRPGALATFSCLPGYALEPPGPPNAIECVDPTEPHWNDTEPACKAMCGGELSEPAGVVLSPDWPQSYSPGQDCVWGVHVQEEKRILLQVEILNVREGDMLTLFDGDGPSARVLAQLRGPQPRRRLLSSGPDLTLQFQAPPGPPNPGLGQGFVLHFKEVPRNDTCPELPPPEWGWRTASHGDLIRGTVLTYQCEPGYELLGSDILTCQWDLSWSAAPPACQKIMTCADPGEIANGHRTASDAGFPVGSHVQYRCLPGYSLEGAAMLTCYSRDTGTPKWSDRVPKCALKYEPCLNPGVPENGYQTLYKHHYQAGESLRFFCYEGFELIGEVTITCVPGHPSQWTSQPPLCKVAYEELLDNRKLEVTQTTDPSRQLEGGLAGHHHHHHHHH
From the text for hSEZ6-ECD-His: (§2) Various methods were used to analyze the binding and immunochemical characteristics of selected SEZ6 modulators generated as set forth above.
From the text for rSEZ6-ECD-His: as §2

B1: SC17.17 (antibody, V domains shown)
VH: EVQLQQSGPEVMKPGASVKMSCKASGYTFTDYNMHWVKQNQGKSLEWIGEINPNIGGTGYNQKFKGKATLTVHKSSSTAYMELRSLTSEDSAVYYCARTYSYYSYEFAYWGQGTLVTVSA
VL: QIVLTQSPAIMSASPGEKVTMTCSASSSVSYMHWYQQKSGTSPKRWIYDTSKLPSGVPARFSGSGSGTSYSLTISSMEAEDAATYYCQQWSSTPPTFGAGTKLELK
notes: murine mAb
The Kd is the equilibrium constant for the complex coming apart. Low values mean a tighter complex, high ones a looser complex. As to B1, the binding result is given as “binds” in experiment [1], “no binding (tested: 1 µg/mL)” with human SEZ6L2 ECD-His and “no binding (tested: 5 µg/mL)” in experiment [2]. Moreover, the Kd is 5 nM with rSEZ6-ECD-His and 1.8 nM in the experiment with hSEZ6-ECD-His.

B2: SC17.34 (antibody, V domains shown)
VH: EVQLQQSGPELVKPGSSVKISCKASGYTFTDYNMDWVKQSHGKRLEWIGYIYPDNGGAGYNQKFKGKATLTVDKSSSTAYMELRSLTSEDSAVYYCSRSITTAWFAYWGQGTLVTVSA
VL: DIKMTQSPSSMYASLGERVTITCKASQDINSYLSWFQQKPGKSPKTLIYRANRLVDGVPSRFSGSGSGQDYSLTISSLEYEDMGIYYCLQYDEFPPTFGGGTKLEIK
notes: murine mAb
Consider B2, for which the figures for the binding result (in experiment [1]; in the experiment with human SEZ6L2 ECD-His; in experiment [2]) were “binds”, “no binding (tested: 1 µg/mL)” and “no binding (tested: 5 µg/mL)”, respectively. Further, the Kd with rSEZ6-ECD-His was found to be 79.5 nM; with hSEZ6-ECD-His it was 15.1 nM.
